# Measurements: publication PMC5646243
# System: TbRpf2 (Trypanosoma brucei (427?))
# Assay: filter binding
# Settings: no Rrs1; 1 mM EDTA; error presumably SEM, 3 replicates; 10 mM Tris pH 7.4, 1 mM EDTA, 100 mM NaCl, 100 ug/ml BSA, 30 min, room temperature; RNA <0.5 nM, protein 0-250 nM
substance,measurement,value
T. brucei 5S rRNA,Kd,26 nM
